From patent US20130274185A1, “Pharmaceutical for Pseudo-Exercise Therapy” (THE UNIVERSITY OF TOKYO, priority 2010, published 2013)
“Also recorded” adds a separate entry of the source.

How the values were obtained:
[1] = Plasma adiponectin level after intravenous adiponectin injection; format: in vivo, mice; conditions: 30 μg recombinant murine adiponectin per 10 g body weight, intravenously
Excerpt: (§1) Mouse full-length adiponectin was generated as described in the following documents (Nature Med. 8, 1288-1295 (2002); Nature Med. 7, 941-946 (2001); Nature 423, 762-769 (2003)).

AMPK = AMPK phosphorylation in vivo (skeletal muscle and liver); design: species or system mice; conditions: 30 μg per 10 g body weight, 10 min
Method: as §1
(§2) Real-time PCR was carried out according to the method described in the following documents (Nature Med. 13, 332-339 2007); Nature 423, 762-769 (2003); J. Biol. Chem. 281, 8748-8755 (2006)). Total RNA was prepared from cells or tissues by using Trizol (Invitrogen) according to the manufacturer's instructions. Quantification of mRNA was conducted using a real-time PCR method (Nature 423, 762-769 (2003)) with slight modifications. The procedures used for immunoblotting are described in the following documents (Nature Med. 7, 941-946 (2001); J. Biol. Chem. 281, 26602-26614 (2006); J. Biol. Chem. 281, 8748-8755 (2006)). The livers or muscles were freeze-clamped in liquid nitrogen in situ (Nature Med. 7, 941-946 (2001); J. Biol. Chem. 281, 26602-26614 (2006); J. Biol. Chem. 281, 8748-8755 (2006)).

PGC-1α (Ppargc1a) = assay: Ppargc1a mRNA levels in skeletal muscle in vivo; design: species or system mice; conditions: control littermates; 30 μg per 10 g body weight, 10 min
Method: as §1, §2

PGC-1α = PGC-1α acetylation in C2C12 myocytes; format: cell-based, mouse; conditions: treatment for 2 hr
Method: (§3) The mouse C2C12 myoblasts were grown in 90% Dulbecco's modified high glucose Eagle's medium containing 10% (v/v) fetal bovine serum. When the cells reached 80% confluent, the myoblasts were induced to differentiate into myocytes by replacing the medium with a low serum differentiation medium (98% Dulbecco's modified high glucose Eagle's medium, 2.5% (v/v) horse serum). The medium was changed daily. The C2C12 cells were transfected by using Pofectamine 2000 (Invitrogen) and following the manufacturer's instructions.

C2C12 myocytes [2] = assay: NAD+/NADH measurements in C2C12 myocytes; format: cell-based, mouse
Method: NAD^+ and NADH nucleotides were directly measured by the method described in the following document (Nature, 458, 1056-1060 (2009)). Whole skeletal muscles or two 10 cm dishes of C2C12 myocytes were homogenized in 200 μl of an acid extraction buffer to measure the NAD^+ concentration, or 200 μl of alkali extraction to obtain the NADH concentration. Next, homogenates were neutralized and the concentration of nucleotides was measured fluorimetrically after an enzymatic cycling reaction using 5 μl of a sample. Values for both nucleotides were detected within the linear range. NAD^+/NADH ratios were calculated by comparing the ratios obtained from each animal or from parallel cell dishes in each experiment.

C2C12 myocytes [3] = assay: Calcium imaging in C2C12 myocytes (fura-2); format: cell-based, mouse
Method: C212 myocytes cultured on glass base dishes (IWAKI) were treated with 2.5 μM fura-2/AM for 30 min. Fluorescence was measured with an Aquacosmos Calcium Imaging system (Hamamatsu Photonics). Ligands were delivered through the superfusing Ringer's solution (140 mM NaCl, 5.6 mM KCl, 5 mM HEPES, 2.0 mM sodium pyruvate, 1.25 mM KH2PO4, 2.0 mM CaCl2, 2.0 mM MgCl2, 9.4 mM D-glucose (pH 7.4)). For the calcium chelating experiment, EGTA solution (140 mM NaCl, 5.6 mM KCl, 5 mM HEPES, 2.0 mM sodium pyruvate, 1.25 mM KH2PO4, 2.0 mM MgCl2, 5.0 mM EGTA-2Na, 9.4 mM D-glucose (pH 7.4) was used for the bath solution. Fura-2 fluorescence ratios were calibrated to calcium ion signals.

C2C12 myocytes [4] = assay: Patch clamp test, whole-cell current in C2C12 myocytes; format: cell-based, mouse; conditions: adiponectin 30 μg/ml 30 sec, holding potential -60 mV
Method: Whole-cell currents were amplified with a patch-clamp amplifier (CEZ-2400; Nihon Kohden) and were digitized with a PowerLab digitizer (AD Instruments). Ringer's solution was used for the extracellular solution. The electrode solution contained 140 mM KCl, 10 mM HEPES, 5 mM EGTA-2K, and 10 mM D-glucose (pH 7.4). The data were low-pass filtered at 2 kHz and were sampled at 20 kHz. Ligands dissolved in Ringer's solution were applied at least twice with a self-made pressure-ejection system and via a two-barreled glass capillary.

CaMKI = CaMKI phosphorylation in C2C12 myocytes; format: cell-based, mouse; conditions: adiponectin 30 μg/ml, 0-20 min
Method: as §3

HDAC5 = HDAC5 phosphorylation in C2C12 myocytes; format: cell-based, mouse; conditions: adiponectin 30 μg/ml, 0-20 min
Method: as §3

B1: adiponectin (protein, UniProt Q60994 1-247, looked up)
chain: MLLLQALLFLLILPSHAEDDVTTTEELAPALVPPPKGTCAGWMAGIPGHPGHNGTPGRDGRDGTPGEKGEKGDAGLLGPKGETGDVGMTGAEGPRGFPGTPGRKGEPGEAAYVYRSAFSVGLETRVTVPNVPIRFTKIFYNQQNHYDGSTGKFYCNIPGLYYFSYHITVYMKDVKVSLFKKDKAVLFTYDQYQEKNVDQASGSVLLHLEVGDQVWLQVYGDGDHNGLYADNVNDSTFTGFLLYHDTN
modifications: full-length
notes: adipokine, internal ligand of adiponectin receptor 1; recombinant murine full-length adiponectin
- plasma adiponectin levels [1]: approximately 30 μg/ml
- phosphorylation of AMPK in liver (AMPK; both genotypes): increased the phosphorylation of AMPK in the liver of both genotypes
- phosphorylation of AMPK in skeletal muscle (AMPK; control littermates): increased the phosphorylation of AMPK in the muscle of control littermates
- expression levels of Ppargc1a in muscle (PGC-1α (Ppargc1a)): increased the expression levels of Ppargc1a in the muscle of control littermates
- PGC-1α acetylation (PGC-1α): decreased PGC-1α acetylation
- NAD+ and NADH contents (C2C12 myocytes [2]): increased
- NAD+/NADH ratio (C2C12 myocytes [2]): increased a NAD^+/NADH ratio; also recorded: increased the NAD^+/NADH ratio
- dose dependence of calcium response (C2C12 myocytes [3]): dose-dependent responses
- intracellular calcium ion concentration (fura-2) (C2C12 myocytes [3]; adiponectin 30 μg/ml): increased an intracellular calcium ion concentration
- whole-cell inward current response (C2C12 myocytes [4]): Inward current responses to adiponectin were observed
- CaMKI phosphorylation (CaMKI): rapid, robust, and transient increase
- HDAC5 phosphorylation (HDAC5): increased HDAC5 phosphorylation
